Test results as given in patent US20260108607A1 (BEIJING DCTY BIOTECH, published 2026).
Changes are numbered by the printed parent chain.

B1: humanized antibody 40-2-H11 (98G2E9-VH5 + VL7) (scFv)
scFv: EVQLLESGGGLVQPGGSLKLSCAASGFTFSGYAMSWVRQTPGKGLEWVATITSGGSYTYYPDSVKGRFTISRDNSKNTLYLQMNSLRAEDTAMYYCARKDYGNYWFAYWGQGTLVTVSSGGGGSGGGGSGGGGSGGGGSDVVMTQSPLSLPVTLGDQASISCRSSQSLVHSDGNTYLHWYLQKPGQSPKLLIYKVSNRFSGVPDRFSGSGSGTDFTLKISRVEAEDVGVYFCSQTTQVPWTFGGGTKLEIK
notes: the format in the SPR assay is not clearly stated
B2: humanized antibody 40-2-H9 (98G2E9-VH5 + VL5) (scFv)
scFv: B1 scFv with Q157P, K183R, K189R
notes: as for B1
B3: humanized antibody 40-2-H10 (98G2E9-VH5 + VL6) (scFv)
scFv: B1 scFv with D156Q
notes: as for B1
B4: humanized antibody 40-2-H12 (98G2E9-VH6 + VL5) (scFv)
scFv: B1 scFv with G42E, S75A, Q157P, K183R, K189R
notes: as for B1
B5: humanized antibody 40-2-H13 (98G2E9-VH6 + VL6) (scFv)
scFv: B1 scFv with G42E, S75A, D156Q
notes: as for B1

These binders were tested against T1, EGFRvIII target antigen (SPR ligand) (UniProt P00533 25-645, limits assumed) (assay: SPR).
T1 construct: also called EGFRvIII antigen

Question: How did the “fold reduction of affinity against the murine antibody from clone #40-2” value (from here on “fold reduction of affinity”) turn out when B1 was run?
Answer: ~2 fold

Question: Which “fold reduction of affinity” value does the source give for B2 here?
Answer: ~2 fold

Question: With B3 as the binder, how does the “fold reduction of affinity” value read?
Answer: ~2 fold

Question: B4 was tested. Which “fold reduction of affinity” value did it give?
Answer: ~2 fold

Question: Which “fold reduction of affinity” value does the source give for B5 here?
Answer: ~2 fold

Each binder was assayed against T1, EGFRvIII target antigen (SPR ligand) (assay: SPR; antibody as analyte).

Question: Which results are given for B1?
Answer: Kd: 138 nM; koff: 0.00343 s⁻¹; kon: 24800 M⁻¹ s⁻¹

Question: B2 was tested. Which Kd did it give?
Answer: 112 nM

Question: What about the koff of the same binder?
Answer: 0.00307 s⁻¹

Question: What about the kon of the same binder?
Answer: 27400 M⁻¹ s⁻¹

Question: With B3 as the binder, how does the Kd read?
Answer: 135 nM

Question: What about the koff of the same binder?
Answer: 0.00345 s⁻¹

Question: And the kon?
Answer: 25600 M⁻¹ s⁻¹

Question: B4 was tested. Which Kd did it give?
Answer: 102 nM

Question: And the koff?
Answer: 0.00266 s⁻¹

Question: And the kon?
Answer: 26000 M⁻¹ s⁻¹

Question: With B5 as the binder, how does the Kd read?
Answer: 102 nM

Question: What about the koff of the same binder?
Answer: 0.00301 s⁻¹

Question: What about the kon of the same binder?
Answer: 29400 M⁻¹ s⁻¹
